Reference: US20210230266A1 (SINGAPORE HEALTH SERVICES PTE, published 2021)
Residue numbers refer to the chain shown, from its start.

T1: Human IL-11 (human, UniProt P20809 22-199)
T1 sequence: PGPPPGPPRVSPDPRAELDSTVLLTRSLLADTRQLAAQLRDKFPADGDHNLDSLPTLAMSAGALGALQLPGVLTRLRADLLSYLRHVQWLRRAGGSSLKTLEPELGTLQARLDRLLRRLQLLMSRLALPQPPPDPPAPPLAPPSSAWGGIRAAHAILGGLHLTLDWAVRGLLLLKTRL

T2: Mouse IL-11 (mouse, UniProt P47873 22-199, limits assumed)
T2 construct: also called murine IL-11; recombinant murine IL-11
T2 sequence (looked up): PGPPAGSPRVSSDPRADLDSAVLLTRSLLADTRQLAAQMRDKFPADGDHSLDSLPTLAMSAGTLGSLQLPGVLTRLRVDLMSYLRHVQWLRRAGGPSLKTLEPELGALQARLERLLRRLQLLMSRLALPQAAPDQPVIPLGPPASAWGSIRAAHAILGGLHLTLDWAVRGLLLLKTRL

B1: YU100-H05 (antibody)
chain: QVQLVESGGGVVQPGRSLRLSCAASGFTFSSYGMHWVRQAPGKGLEWVAVISYDGSNKYYADSVKGRFTISRDNSKNTLYLQMNSLRAEDTAVYYCAKIGATDPLDYWGQGTLVTVSSGSASAPKLEEGEFSEARVQAVLTQPRSVSGSPGQSITISCTGTGSNVGGYNYVSWYQQHPGQAPKLMIYDVSKRPSGVPDRFSGSKSGNTASLTISGLQAEDEADYYCCSYAGTYTWVFGGGTKLTVL
B2: YU112-C05 (antibody)
chain: EVQLVESGGGVVQPGRSLRLSCAASGFTFSSYAMHWVRQAPGKGLEWVAVISYDGSNKYYADSVKGRFTISRDNSKNTLYLQMNSLRAEDTAVYYCARIMGYDYGDYDVVDYWGQGTLVTVSSGSASAPKLEEGEFSEARVQSALTQPRSVSGSPGQSVTISCTGTISDVGGYNYVSWYQQHPGKAPKLMIYDVTKRPSGVPDRFSGSKSGNTASLTISGLQAEDEAGYYCSSYAGSYTWVFGGGTELTVL
B3: YU112-C03 (antibody)
chain: QVQLVESGGGVVQPGRSLRLSCAASGFTFSSYGMHWVRQAPGKGLEWVAVISYDGSNKYYADSVKGRFTISRDNSKNTLYLQMNSLRAEDTAVYYCAKGGKSYYGFDYWGQGTLVTVSSGSASAPKLEEGEFSEARVDSVMTQSPSSLSASVGDRVTITCRASQAINSYLNWYQQKPGKAPKLLIYAASSLQSGVPSRFSGSGSGTDFTLTISGLQPEDFATYYCQQSYSTPSWTFGQGTKVEIK
B4: YU100-G09 (antibody)
chain: EVQLVESGGGVVQPGRSLRLSCAASGFTFSSYGMHWVRQAPGKGLEWVAVISYDGSNKYYADSVKGRFTISRDNSKNTLYLQMNSLRAEDTAVYYCAKIGATDPLDYWGQGTLVTVSSGSASAPKLEEGEFSEARVQSALTQPRSVSGSPGQSVTISCTGTISDVGGYNYVSWYQQHPGKAPKLMIYDVTKRPSGVPDRFSGSKSGNTASLTISGLQAEDEAGYYCSSYAGSYTWVFGGGTKLTVL
B5: YU112-G06 (antibody)
chain: B4 chain with E1Q, V5Q, P193R, S232G, K242E
B6: YU112-D08 (antibody)
chain: B4 chain with E1Q, K65E, K242E
B7: YU112-A07 (antibody)
chain: B4 chain with E1Q, A61T, K242E
B8: YU100-H06 (antibody)
chain: B4 chain with E1Q, V136I, I162S, G223D
B9: YU112-F05 (antibody)
chain: EVQLVQSGGGVVQPGRSLRLSCAASGFTFGSYGMHWVRQAPGKGLEWVAVISYDGSNKYYADSVKGRFTISRDNSKNTLYLQMNSLRAEDTAVYYCAKIGATDPLDYWGQGTLVTVSSGSASAPKLEEGEFSEARVQSALTQPRSVSGSPGQSVTISCTGTSSDVGGYNYVSWYQQHPGKAPKLIIYDVNNRPSGVSNRFSASKSGNTASLTISGLQAEDEADYYCNSYTSGSTWVFGGGTKLTVL
B10: YU100-H11 (antibody)
chain: QVQLVQSGGGVVQPGRSLRLSCAASGFTFSSYGMHWVRQAPGKGLEWVAVISYDGSNKYYADSVKGRFTISRDNSKNTLYLQMNSLRAEDTAVYYCAKIGATDPLDYWGQGTLVTVSSGSASAPKLEEGEFSEARVQSALTQPASVSGSPGQSITISCTGTSSDVGGYNYVSWYQQHPGKAPKLMIYDVSNRPSGVSNRFSGSKSGNTASLTISGLQAEDEADYYCCSYAGSYTWVFGGGTKLTVL
B11: YU112-B06 (antibody)
chain: B10 chain with Q6E, S214F, C227S, A230T, G231S, Y233S, T234S
B12: YU100-H02 (antibody)
chain: QVQLQQSGGGVVQPGRSLRLSCAASGFTFSSYGMHWVRQAPGKGLEWVAVISYDGSNKYYADSVKGRFTISRDNSKNTLYLQMNSLRAEDTAVYYCARIMGYDYGDYDVVDYWGQGTLVTVSSGSASAPKLEEGEFSEARVQSALTQPRSVSRSPGQSVTISCTGTSSDVGTYNYVSWYQQHPGKAPKLMIYDVSKRPSGVPDRFSGSKSGNTASLTISGLQAEDEADYYCCSYAGFYTWVFGGGTKLTVL
B13: YU100-H04 (antibody)
chain: B12 chain with Q5V, Q6E, G33A, R149A, R153G, V159I, V170I, T172V, F237S
B14: YU100-H09 (antibody)
chain: B12 chain with Q5V, G33A, R149A, R153G, V159I, T172G, K196N, P202S, D203N, F237S

Biological target: T1, Human IL-11
Test: cell-based or functional assay

MMP2 production, Experiment 1 (human atrial fibroblasts + TGFB1) [ng/mL] | MMP2 production, Experiment 2 (human atrial fibroblasts + TGFB1) [ng/mL] | Binder
57.1 | 47.8 | B1
55.2 | 50.1 | B2
57.6 | 53.3 | B3
59.9 | 47.5 | B4
55 | 47.8 | B5
50.3 | 42.5 | B6
50.7 | 45 | B7
52.3 | 43.9 | B8
53.9 | 48.5 | B9
53.7 | 45.5 | B10
49.7 | 43.9 | B11
57.5 | 51.3 | B12
58.5 | 48.7 | B13
52.9 | 39.6 | B14

Biological target: T2, Mouse IL-11
Test: ELISA
Experimental: (§1) The soluble scFv were produced by recombinant expression in E. coli, and analysed for their ability to bind to human IL-11 and murine IL-11 by ELISA. Briefly, the respective antigen was coated to wells of an ELISA plate, the cell culture supernatant containing the respective scFv was added at a 1:2 dilution, and binding was detected.

mIL11 - average signal | Binder
0.461 | B1
0.685 | B2
0.445 | B3
0.985 | B4
0.762 | B5
0.723 | B6
0.612 | B7
0.328 | B8
0.601 | B9
0.629 | B10
0.622 | B11
0.188 | B12
0.393 | B13
0.668 | B14

Biological target: T1, Human IL-11
Test: ELISA
Experimental: as §1

hIL11 - average signal | Binder
0.163 | B1
0.458 | B2
0.566 | B3
0.802 | B4
0.664 | B5
0.418 | B6
0.438 | B7
0.181 | B8
0.863 | B9
0.724 | B10
0.756 | B11
0.309 | B12
0.508 | B13
0.4 | B14

Biological target: T1, Human IL-11
Test: ELISA on coated recombinant human IL-11 (100 ng/well), scFv-Fc
Experimental: The light chain shuffled anti-IL-11 antibodies were analysed to determine the EC50 for binding to human IL-11 by ELISA according to standard methods. Briefly, wells of microtiter plates were coated with recombinant human IL-11 (100 ng/well), scFv-Fc comprising the VH and VL domains of the clones were added in a dilution series and antibody binding was detected using a polyclonal antibody detection system.

EC50 [µg/mL] | Binder
0.022 | B1
0.012 | B2
0.017 | B3
0.014 | B4
0.017 | B5
0.018 | B6
0.025 | B7
0.013 | B8
0.04 | B9
0.015 | B10
0.02 | B11
0.032 | B12
0.027 | B13
0.028 | B14
